One may read the Kd as a measure of binding affinity in units of concentration.

“And” between values parts separate entries of the source, which are not always exact repeats. Equal entries are not always repeated.

This is an account of results in publication PMC6411776 (2019).

The target of test [1] is Cep63 full-length (FL) (human). The test is described as follows: co-IP; transfected HEK293 cells lysed in TBSN buffer [20 mM Tris-HCl (pH 8.0), 150 mM NaCl, 0.5% Nonidet P-40, 5 mM EGTA, 1.5 mM EDTA]; IP with anti-FLAG or anti-GFP antibody and protein A/G-agarose; immunoblotting.
The target of test [2] is Cep63 P1(424–541), expressed in HEK293 cells. Description: co-immunoprecipitation (IP: FLAG) and immunoblotting. The settings on record: transfected HEK293 cells; FLAG-Cep152 M4e co-expressed with GFP-Cep63 P1 and GFP-Cep152 M4e; blot α-GFP, P1 band; parent: 1.0. On the technique in general: In western blotting, separated proteins are transferred to a membrane and probed.
The target in test [3] is Cep152 M4e(1205–1272). The test is described as above. The conditions noted are these: transfected HEK293 cells; FLAG-Cep152 M4e co-expressed with GFP-Cep63 P1 and GFP-Cep152 M4e; blot α-GFP, M4e band; parent: 1.0.
The target in test [4] is Cep152 full-length FL(1–1654) (human). Description: co-IP; IP from a mixture of lysates from HEK293 cells transfected separately with each construct; with or without provision of HA-Cep63.
Test [5] concerns the target Cep63 full-length (FL). The test is described as follows: co-immunoprecipitation (IP: FLAG) and immunoblotting. The settings on record: transfected HEK293 cells; FLAG-Cep152 WT or 6A co-expressed with HA-Cep63; blot α-HA, long exposure; parent: 1.0.
Test [6] addresses Cep152 M4e(1205–1272) (human). The test is described as follows: co-IP; transfected HEK293 cells lysed in TBSN buffer [20 mM Tris-HCl (pH 8.0), 150 mM NaCl, 0.5% Nonidet P-40, 5 mM EGTA, 1.5 mM EDTA]; IP with anti-FLAG or anti-GFP antibody and protein A/G-agarose; immunoblotting.
Test [7] concerns the target Cep63 P1b(490–541) (human). The description is as above.
Test [8] deals with Cep152 M4d(1205–1295), from E. coli (human). Description: AUC; sedimentation velocity, complex at 10 μM; 4 °C; 20 mM Tris (pH 7.5), 500 mM NaCl, 10 mM 2-mercaptoethanol, 0.5 mM TCEP, 5% glycerol.
The target of test [9] is Cep152 M4e15(1205–1257), from E. coli (human). Description: SEC-MALS; decreasing concentrations of the P1b5•M4e15 complex; biphasic change of MW, estimated Kd values of two steps of dissociation of the heterotetramer.
Test [10] shares this target. The test is described as follows: AUC; sedimentation velocity of the P1b5•M4e15 complex, 95 to 530 μM; 20 °C; 20 mM Tris (pH 7.5), 100 mM NaCl, 0.5 mM TCEP.
Test [11] concerns the target Cep152(1140–1295), from E. coli (human). The test is described as follows: SEC-MALS; Cep63(220–541)•Cep152(1140–1295) complex; Superdex 200 Increase 10/300 GL, 4 °C, 20 mM Tris-HCl (pH 8.0), 150 mM NaCl, 0.5 mM TCEP (the methods name the P1•M4d complex). For orientation: SEC sorts molecules by how far they enter the pores of the column.
Test [12] concerns the target T1, Cep152 (Homo sapiens, UniProt O94986).
T1 chain: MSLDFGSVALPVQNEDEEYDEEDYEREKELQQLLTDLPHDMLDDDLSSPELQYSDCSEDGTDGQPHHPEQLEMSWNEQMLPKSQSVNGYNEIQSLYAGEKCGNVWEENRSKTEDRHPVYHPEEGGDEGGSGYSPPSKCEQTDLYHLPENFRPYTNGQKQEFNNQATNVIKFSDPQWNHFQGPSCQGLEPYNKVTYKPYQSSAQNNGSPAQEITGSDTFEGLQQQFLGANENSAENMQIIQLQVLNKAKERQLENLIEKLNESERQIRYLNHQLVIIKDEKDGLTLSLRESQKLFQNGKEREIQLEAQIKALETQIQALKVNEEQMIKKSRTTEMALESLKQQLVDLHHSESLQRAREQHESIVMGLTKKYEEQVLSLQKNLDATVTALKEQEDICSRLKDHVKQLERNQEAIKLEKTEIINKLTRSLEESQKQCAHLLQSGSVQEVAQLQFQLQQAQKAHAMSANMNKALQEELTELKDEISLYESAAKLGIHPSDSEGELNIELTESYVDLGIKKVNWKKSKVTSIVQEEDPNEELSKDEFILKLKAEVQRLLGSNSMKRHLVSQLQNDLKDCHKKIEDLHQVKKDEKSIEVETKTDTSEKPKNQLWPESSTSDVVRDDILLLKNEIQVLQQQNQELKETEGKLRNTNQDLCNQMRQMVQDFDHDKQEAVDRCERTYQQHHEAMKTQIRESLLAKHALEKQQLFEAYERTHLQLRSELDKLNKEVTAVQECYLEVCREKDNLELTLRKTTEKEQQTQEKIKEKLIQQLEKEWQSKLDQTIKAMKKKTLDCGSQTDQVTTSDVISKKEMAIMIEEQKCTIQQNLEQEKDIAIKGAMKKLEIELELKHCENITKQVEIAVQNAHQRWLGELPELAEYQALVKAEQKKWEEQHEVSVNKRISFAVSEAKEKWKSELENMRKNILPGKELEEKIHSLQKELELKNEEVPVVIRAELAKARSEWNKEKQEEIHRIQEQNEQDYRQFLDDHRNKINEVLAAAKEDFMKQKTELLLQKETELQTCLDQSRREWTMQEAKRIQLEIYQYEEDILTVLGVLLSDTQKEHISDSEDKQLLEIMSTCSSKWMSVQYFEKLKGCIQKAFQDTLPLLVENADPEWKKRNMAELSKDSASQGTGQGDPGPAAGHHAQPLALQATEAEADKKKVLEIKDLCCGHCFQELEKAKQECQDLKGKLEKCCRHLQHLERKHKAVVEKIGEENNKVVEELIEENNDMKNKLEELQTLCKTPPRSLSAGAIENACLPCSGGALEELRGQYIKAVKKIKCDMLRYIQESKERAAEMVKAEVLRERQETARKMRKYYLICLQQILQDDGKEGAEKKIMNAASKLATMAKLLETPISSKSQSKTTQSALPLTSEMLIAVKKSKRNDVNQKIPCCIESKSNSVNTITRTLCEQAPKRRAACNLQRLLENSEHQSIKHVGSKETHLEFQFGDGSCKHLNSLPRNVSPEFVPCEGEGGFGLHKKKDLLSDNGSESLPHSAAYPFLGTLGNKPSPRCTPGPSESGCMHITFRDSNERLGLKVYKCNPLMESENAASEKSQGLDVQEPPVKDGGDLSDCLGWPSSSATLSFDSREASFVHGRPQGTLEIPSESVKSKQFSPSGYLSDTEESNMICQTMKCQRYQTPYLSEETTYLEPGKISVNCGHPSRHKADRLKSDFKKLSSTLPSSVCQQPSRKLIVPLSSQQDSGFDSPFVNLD
The test is described as follows: SEC-MALS.

Molecule “Cep63 full-length (FL) (natural protein)” returned a fold increase of the co-precipitate on provision of Cep152 in test [1] of 8 fold.
Turning to Cep152 M4e(1205–1272) 5A, the ratio to parent in test [2] stood at 0.9; in test [3], 0.7.
The like results for Cep152 M4e(1205–1272) 11A were, in that order, 0 and 0.
The like results for “Cep152 M4e(1205–1272) L1207A; L1210A; Y1214A; I1221A; M1225A; Y1228A” were, in that order, 0 and 0.1.
For the molecule “Cep152 full-length FL(1–1654) (natural protein)”, the fold increase of the co-precipitate on provision of Cep63 in test [4] is 8 fold.
Consider “Cep152 full-length FL(1–1654) L1207A; L1210A; Y1214A; I1221A; M1225A; Y1228A”, for which the ratio to parent in test [5] was 0.1.
The molecule “GFP-Cep63 P1b5(502–541) (domain or fragment)” showed a loss of co-precipitation against the P1b–M4e pair in test [6] of 40%.
For the molecule “GFP-Cep152 M4e13(1205–1260) (domain or fragment)”, the loss of co-precipitation against the P1b–M4e pair in test [7] was 40%.
“His-Cep63 P1(424–541), from E. coli (domain or fragment)”: the stoichiometry N (Cep63:Cep152 (printed as 2:2)) in test [8] amounted to 1.
In the case of “His-Cep63 P1b5(502–541), from E. coli (pKM5500) (domain or fragment)”, the Kd of one of two steps of dissociation of the 2:2 heterotetramer (step not assigned) in test [9] was 60 µM. In addition, the stoichiometry N (Cep63:Cep152 (printed as 2:2)) in test [10] turned out to be 1.
In the case of “His-Cep63(220–541), from E. coli (domain or fragment)”, the stoichiometry N (Cep63:Cep152 (printed as 2:2)) in [11] turned out to be 1.

B1: Cep63 (protein)
chain: MEALLEGIQNRGHGGGFLTSCEAELQELMKQIDIMVAHKKSEWEGRTHALETCLKIREQELKSLRSQLDVTHKEVGMLHQQVEEHEKIKQEMTMEYKQELKKLHEELCILKRSYEKLQKKQMREFRGNTKNHREDRSEIERLTAKIEEFRQKSLDWEKQRLIYQQQVSSLEAQRKALAEQSEIIQAQLVNRKQKLESVELSSQSEIQHLSSKLERANDTICANELEIERLTMRVNDLVGTSMTVLQEQQQKEEKLRESEKLLEALQEEKRELKAALQSQENLIHEARIQKEKLQEKVKATNTQHAVEAIRPREESLAEKKYTSQGQGDLDSVLSQLNFTHTSEDLLQAEVTCLEGSLESVSATCKQLSQELMEKYEELKRMEAHNNEYKAEIKKLKEQILQGEQSYSSALEGMKMEISHLTQELHQRDITIASTKGSSSDMEKRLRAEMQKAEDKAVEHKEILDQLESLKLENRHLSEMVMKLELGLHEAKEISLADLQENYIEALNKLVSENQQLQKDLMNTKSQLEISTQMCKKQNDRIFKPTHSRTTEFKNTEFKPTHGQHRHDGIKTEHYKTDLHSPRGQASDSINPMSRVLSPLSPQISPCSSTRSLTSYSLCKTHSLPSALDTNEANFSDTMSESMNDQEEFISSCSLPVSPLGSIATRFLEEEELRSHHILERLDAHIEELKRESEKTVRQFTALK
Take B1: in test [12], the Kd was ~60 µM and ~117 µM.
